Assay results published in US20230183352A1.

Molecular target: CD80-FC (UniProt P33681)
Experiment: ELISA, CD80-FC coated 4 µg/ml, biotin-PDL1-FC titrated

CD80-FC, sequence (P33681 35-242 limits assumed): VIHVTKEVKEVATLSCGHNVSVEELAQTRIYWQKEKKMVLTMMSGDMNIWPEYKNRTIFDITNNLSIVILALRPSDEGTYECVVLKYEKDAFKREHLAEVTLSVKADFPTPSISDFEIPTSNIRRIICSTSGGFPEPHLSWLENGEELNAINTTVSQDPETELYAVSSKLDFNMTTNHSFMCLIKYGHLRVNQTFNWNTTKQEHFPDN
Biotin QP004.3 (biotin-PDL1-FC), sequence (Q9NZQ7 19-238 limits assumed): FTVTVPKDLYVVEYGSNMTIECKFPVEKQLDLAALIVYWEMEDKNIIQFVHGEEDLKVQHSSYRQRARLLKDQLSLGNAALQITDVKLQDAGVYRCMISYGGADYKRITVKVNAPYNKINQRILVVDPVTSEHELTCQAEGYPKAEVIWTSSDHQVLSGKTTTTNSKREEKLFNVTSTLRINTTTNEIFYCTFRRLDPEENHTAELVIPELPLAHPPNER

- ELISA reading at 0 µg/ml Biotin-QP004.3 (blank): 0.0484
- ELISA reading at 0.00064 µg/ml Biotin-QP004.3: 0.048
- ELISA reading at 0.0032 µg/ml Biotin-QP004.3: 0.0468
- ELISA reading at 0.016 µg/ml Biotin-QP004.3: 0.0668
- ELISA reading at 0.08 µg/ml Biotin-QP004.3: 0.179
- ELISA reading at 0.4 µg/ml Biotin-QP004.3: 0.591
- ELISA reading at 2 µg/ml Biotin-QP004.3: 1.87
- ELISA reading at 10 µg/ml Biotin-QP004.3: 3.19
Substance: Biotin QP004.3 (biotin-PDL1-FC) (from UniProt Q9NZQ7 19-238) (Fc fusion)
